Reference: patent publication US20240043507A1 (RQ BIOTECHNOLOGY, published 2024)

Experiments:
[1] = biological target: T1, SARS-CoV-2 receptor binding domain (RBD), native (SARS-CoV-2, UniProt P0DTC2 330-532); assay: method and antigen not stated there
T1 construct: range 330-532

[2] = biological target: T1, SARS-CoV-2 receptor binding domain …; assay: BLI, RBD/Fab; de-glycosylated Fab 316
[3] = biological target: T1, SARS-CoV-2 receptor binding domain …; assay: BLI, RBD/Fab; de-glycosylated Fab 88
[4] = biological target: T1, SARS-CoV-2 receptor binding domain …; assay: BLI, RBD/Fab; glycosylated Fab 88

B1: mAb 45 (antibody, V domains shown)
VH: QVQLVESGGGVVQPGRSLRLSCAASGFTFSTYAMHWVRQAPGKGLEWVAVLSYDGSNKYYADSVKGRFTISRDNSKNTLYLQMNSLRAEDTAVYYCAKGGSYAYYYYMDVWGKGTTVTVSS
VL: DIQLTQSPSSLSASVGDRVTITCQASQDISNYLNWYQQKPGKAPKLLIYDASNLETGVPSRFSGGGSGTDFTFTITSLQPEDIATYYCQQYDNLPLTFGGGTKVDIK
notes: also called antibody 45
- Kd [1]: 0.018 µg/mL

B2: Fab 316, de-glycosylated (Fab, V domains shown)
VH: not shown
VL: QAVLTQPPSASGSPGQSVTISCTGTSSDVGGYNYVSWYQQHPGKAPKLMIYEVSKRPSGVPDRFSGSKSGNTASLTVSGLQAEDEADYYCSSYAGSNHWVFGGGTKLTVL
- Kd [2]: 1 nM

B3: Fab 88, de-glycosylated (Fab, V domains shown)
VH: QLQLQESGPGLVKPSQTLSLTCTVSGGSISSGSYNWTWIRQPAGKGLEWIGRIYNSGSTNYNPSLKSRVTISVDTSKNQLSLKVRSVTAADTAVYYCARHCSGGTCYPKYYYGMDVWGQGTTVTVSS
VL: QSALTQPPSVSEAPRQRVTISCSGSSSNIGNNAVNWYQQFPGKAPKLLIYYDDLLPSGVSDRFSGSKSGTSASLAISGVQSEDEADYYCAAWDDSLNVVVFGGGTKLTVL
- Kd [3]: 0.8 nM

B4: Fab 88 (Fab, V domains shown)
VH: B3 VH
VL: B3 VL
notes: also called 88 Fab (glycosylated)
- Kd [4]: 1.2 nM
